Experimental data published in patent US20060234285A1 (Human Genome Sciences, published 2006).
Values belong to the binder of their own block, whether it stands above or below them.

B3: Human LIGHT protein, natural secreted form (aa83-240) (ligand, UniProt O43557 83-240, looked up)
chain: LIQERRSHEVNPAAHLTGANSSLTGSGGPLLWETQLGLAFLRGLSYHDGALVVTKAGYYYIYSKVQLGGVGCPLGLASTITHGLYKRTPRYPEELELLVSQQSPCGRATSSSRVWWDSSFLGGVVHLEAGEKVVVRVLDERLVRLRDGTRSYFGAFMV
notes: range 83-240; also called soluble LIGHT
B4: Full-length human TR6 (without Fc) (receptor)
chain: VAETPTYPWRDAETGERLVCAQCPPGTFVQRPCRRDSPTTCGPCPPRHYTQFWNYLERCRYCNVLCGEREEEARACHATHNRACRCRTGFFAHAGFCLEHASCPPGAGVIAPGTPSQNTQCQPCPPGTFSASSSSSEQCQPHRNCTALGLALNVPGSSSHDTLCTSCTGFPLSTRVPGAEECERAVIDFVAFQDISIKRLQRLLQALEAPEGWGPTPRAGRAALQLKLRRRLTELLGAQDGALLVRLLQALRVARMPGLERSVRERFLPVH
notes: Full-length cDNA expressed in Sf9 cells with the natural leader; also called TR6 non-Fc; TR6-non-Fc
B5: TNF-gamma-beta, full length, on transfected cells (ligand, human, UniProt O95150 1-251, looked up)
chain: MAEDLGLSFGETASVEMLPEHGSCRPKARSSSARWALTCCLVLLPFLAGLTTYLLVSQLRAQGEACVQFQALKGQEFAPSHQQVYAPLRADGDKPRAHLTVVRQTPTQHFKNQFPALHWEHELGLAFTKNRMNYTNKFLLIPESGDYFIYSQVTFRGMTSECSEIRQAGRPNKPDSITVVITKVTDSYPEPTQLLMGTKSVCEVGSNWFQPIYLGAMFSLQEGDKLMVNVSDISLVDYTKEDKTFFGAFLL
notes: whole, on cells; also called TL1β

Tests used:
[1] = biological target: T1, TNFR-6 alpha-Fc fusion protein (full length TNFR-6 alpha, amino acids 1-300 of SEQ ID NO:2, fused to the Fc … (human, UniProt O95407 30-300)); experiment: conclusion from flow cytometry
T1 construct: Construct M1-H300 fused to Fc (pA2Fc:TR6, baculovirus/Sf9); the secreted protein starts at Val 30 and is a disulfide-linked dimer; also called TNFR6-Fc; TR6-Fc
T1 sequence: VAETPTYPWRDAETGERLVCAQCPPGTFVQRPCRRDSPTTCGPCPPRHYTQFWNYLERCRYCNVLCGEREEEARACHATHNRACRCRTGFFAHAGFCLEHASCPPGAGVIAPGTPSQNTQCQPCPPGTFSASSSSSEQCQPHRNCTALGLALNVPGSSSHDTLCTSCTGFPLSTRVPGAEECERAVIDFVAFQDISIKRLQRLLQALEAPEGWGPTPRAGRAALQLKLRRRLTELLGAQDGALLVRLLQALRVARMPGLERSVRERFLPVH

[2] = biological target: B4; experiment: flow cytometry competition on activated human T cells
[3] = biological target: B3; experiment: BIAcore, TR2-Fc immobilized, LIGHT in flow; TR2-Fc
Procedure: (§1) The amount of bound protein was determined during washing of the flow cell with HBS buffer (10 mM HEPES, pH 7.4, 150 mM NaCl, 3.4 mM EDTA, 0.005% Surfactant P20). The flow cell surface was regenerated by washing off the bound proteins with 20 microliters of 10 mM glycine-HCl pH 2.3. […] The on- and off-rates were determined according a kinetic evaluation program in the BiaEvaluation 3 software using a 1:1 binding model and the global analysis method.

[4] = biological target: B4; experiment: BIAcore; TR6 without Fc
Procedure: as §1

[5] = biological target: T1, TNFR-6 alpha-Fc fusion protein (full …); experiment: BIAcore; TR6-Fc
Procedure: as §1

[6] = biological target: T1, TNFR-6 alpha-Fc fusion protein (full …); experiment: BIAcore, receptor immobilized, LIGHT in flow; TR6-Fc
Procedure: as §1

[7] = biological target: B5; experiment: flow cytometry competition, competitor DR3-Fc
Procedure: (§2) One million cells, in 0.1 ml of FACS buffer (PBS, 0.1% BSA, 0.1% NaN₃), were incubated with 0.1-1 microgram of protein or antibody at RT for 15 min. The cells were washed with 3 ml of FACS buffer, reacted with biotinylated primary antibody, and stained with PE-conjugated secondary antibody at RT for 15 min. Cells were then washed again, resuspended in 0.5 microgram/ml of propidium iodide, and live cells were gated and analyzed on a FACScan using the CellQuest software (BD Biosciences).

[8] = biological target: T2, Murine FasL on transfected murine L929 cells (murine, UniProt P41047 1-279); experiment: cell-based or functional assay
T2 sequence (looked up): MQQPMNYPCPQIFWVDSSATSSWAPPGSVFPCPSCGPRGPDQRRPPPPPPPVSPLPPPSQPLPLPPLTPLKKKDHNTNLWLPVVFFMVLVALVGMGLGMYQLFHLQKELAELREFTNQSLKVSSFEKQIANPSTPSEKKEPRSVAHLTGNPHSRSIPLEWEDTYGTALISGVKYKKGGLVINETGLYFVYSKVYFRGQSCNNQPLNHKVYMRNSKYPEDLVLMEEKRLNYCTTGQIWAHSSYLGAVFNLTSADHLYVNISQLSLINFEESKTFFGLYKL

[9] = biological target: T3, Soluble human FLAG-FasL (synthesized at HGS) (human, UniProt P48023 130-281, limits assumed); experiment: BIAcore
T3 construct: called trimerized in the kinetic BIAcore run; cross-linked with FLAG antibody in the cell assays; also called FasL-Flag; trimerized FLAG-FasL
T3 sequence (looked up): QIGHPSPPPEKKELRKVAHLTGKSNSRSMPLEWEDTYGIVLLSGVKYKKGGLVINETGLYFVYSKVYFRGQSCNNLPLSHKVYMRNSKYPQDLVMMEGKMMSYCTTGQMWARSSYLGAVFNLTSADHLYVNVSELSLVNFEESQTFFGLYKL

[10] = biological target: B3; experiment: BIAcore
[11] = biological target: T1, TNFR-6 alpha-Fc fusion protein (full …); experiment: FACS on transfected cells
DR6-Fc = biological target: T4, DR6-Fc (UniProt O75509 42-349, limits assumed); experiment: flow cytometry on HEK293F cells expressing full length TNF-gamma-beta
T4 construct: extracellular domain
T4 sequence (looked up): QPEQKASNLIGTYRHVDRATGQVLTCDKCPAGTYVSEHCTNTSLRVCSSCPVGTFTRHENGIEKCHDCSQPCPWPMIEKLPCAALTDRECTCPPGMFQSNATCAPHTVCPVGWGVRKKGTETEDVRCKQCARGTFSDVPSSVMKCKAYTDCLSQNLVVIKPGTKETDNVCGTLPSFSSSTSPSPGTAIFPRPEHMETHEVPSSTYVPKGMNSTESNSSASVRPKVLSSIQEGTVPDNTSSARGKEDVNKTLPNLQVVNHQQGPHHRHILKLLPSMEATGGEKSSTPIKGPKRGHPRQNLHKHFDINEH
Procedure: as §2

[12] = biological target: T5, Recombinant, untagged TNF-gamma-beta protein (aa 72-251) from E. coli (human, UniProt O95150 72-251); experiment: BIAcore, three batches of TNF-gamma-beta; DR3-Fc, average of three batches
T5 construct: also called TL1β; recombinant TL1β protein
T5 sequence (looked up): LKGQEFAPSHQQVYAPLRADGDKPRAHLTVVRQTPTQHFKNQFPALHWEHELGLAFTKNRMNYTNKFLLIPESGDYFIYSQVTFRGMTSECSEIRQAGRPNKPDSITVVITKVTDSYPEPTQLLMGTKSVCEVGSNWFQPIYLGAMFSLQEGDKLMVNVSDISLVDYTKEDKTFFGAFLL
Procedure: (§3) TNFR-Fc were covalently immobilized to the BIAcore sensor chip (CM5 chip) via amine groups using N-ethyl-N′-(dimethylaminopropyl) carbodiimide/N-hydroxysuccinimide chemistry. […] The amount of bound protein was determined during washing of the flow cell with HBS buffer (10 mM HEPES, pH 7.4, 150 mM NaCl, 3.4 mM EDTA, 0.005% Surfactant P20). The flow cell surface was regenerated by displacing bound protein by washing with 20 microliters of 10 mM glycine-HCl, pH 2.3. For kinetic analysis, the on and off rates were determined using the kinetic evaluation program in BIAevaluation 3 software using a 1:1 binding model and the global analysis method.

[13] = biological target: T5, Recombinant, untagged TNF-gamma-beta …; experiment: BIAcore, DR3-Fc immobilized, TNF-gamma-beta 3-370 nM in flow; DR3-Fc
Procedure: as §3

[14] = biological target: T5, Recombinant, untagged TNF-gamma-beta …; experiment: BIAcore, receptor-Fc immobilized
Procedure: as §3

B2: Human TR2-Fc (extracellular domain of TR2, aa1-192, fused to the Fc domain of human IgG1) (Fc fusion, not shown: a dimerising Fc or GST)
chain: LPSCKEDEYPVGSECCPKCSPGYRVKEACGELTGTVCEPCPPGTYIAHLNGLSKCLQCQMCDPAMGLRASRNCSRTENAVCGCSPGHFCIVQDGDHCAACRAYATSSPGQRVQKGGTESQDTLCQNCPPGTFSPNGTLEECQHQTKCSWLVTKA
notes: From CHO cells
Kd [3]: 4.56 nM

Binder: B3
Kd [4]: 14.3 nM
koff [4]: 0.00483 s⁻¹
kon [4]: 338000 M⁻¹ s⁻¹
koff [5]: 0.0023 s⁻¹
kon [5]: 422000 M⁻¹ s⁻¹
Kd [6]: 5.46 nM

Binder: B4
molar ratio of TR6 to DR3-Fc at which no DR3-Fc binding was detected [7]: 2 molar ratio (TR6:DR3-Fc)
IC50 of inhibition of killing of A20 target cells by murine FasL-transfected L929 cells [8]: ~1 ng/mL
fold reduction in affinity against TR6-Fc [9]: 4 fold
fold higher off rate against TR6-Fc [10]: ~2 fold

Binder: B5
binding result [11]: binds
binding result (DR6-Fc): no binding

B6: DR3-Fc (extracellular domain of human DR3, aa 1-199, fused to the Fc domain of human IgG1) (Fc fusion, UniProt Q93038 25-199, looked up, not shown: a dimerising Fc or GST)
chain: QGGTRSPRCDCAGDFHKKIGLFCCRGCPAGHYLKAPCTEPCGNSTCLVCPQDTFLAWENHHNSECARCQACDEQASQVALENCSAVADTRCGCKPGWFVECQVSQCVSSSPFYCQPCLDCGALHRHTRLLCSRRDTDCGTCLPGFYEHGDGCVSCPTSTLGSCPERCAAVCGWRQ
notes: range 1-199
Kd [12]: 6.45 nM
koff [13]: 0.00413 s⁻¹
kon [13]: 639000 M⁻¹ s⁻¹

The remaining lines, values ahead:

binding result [1]: binds
binding result [2]: binds
B1: Human LIGHT, full length, on cells (stably transfected 293F cells; endogenous on activated human T cells) (ligand, UniProt O43557 1-240, looked up)
chain: MEESVVRPSVFVVDGQTDIPFTRLGRSHRRQSCSVARVGLGLLLLLMGAGLAVQGWFLLQLHWRLGEMVTRLPDGPAGSWEQLIQERRSHEVNPAAHLTGANSSLTGSGGPLLWETQLGLAFLRGLSYHDGALVVTKAGYYYIYSKVQLGGVGCPLGLASTITHGLYKRTPRYPEELELLVSQQSPCGRATSSSRVWWDSSFLGGVVHLEAGEKVVVRVLDERLVRLRDGTRSYFGAFMV
notes: whole, on cells; also called LIGHT-transfectants; cell membrane LIGHT

binding result [14]: no binding (tested: 3-370 nM)
B7: BCMA-Fc (Fc fusion, human, UniProt Q02223 1-54, looked up, not shown: a dimerising Fc or GST)
chain: MLQMAGQCSQNEYFDSLLHACIPCQLRCSSNTPPLTCQRYCNASVTNSVKGTNA
notes: Control surface in the BIAcore analysis
